{"source": "patent US20030161832A1", "about": "(CORNELL RESEARCH FOUNDATION, published 2003)", "binders": {"B1": {"name": "murine monoclonal antibody J533 (hybridoma ATCC HB-12127) (antibody, mouse IgG1, V domains shown)", "VH": "EVQLQQSGPELVKPGASVKMSCKASGYTFTGYVMHWVKQKPGQVLEWIGYINPYNDVTRYNGKFKGKATLTSDKYSSTAYMELSGLTSEDSAVYYCARGENWYYFDSWGRGATLTVSS", "VL": "DIVLTQSPASLAVSLGQRATISCRASESIDSYDNTFMHWYQQKPGQPPNLLIFRASILESGIPARFSGSGSGTDFTLTIYPVEADDVATYYCHQSIEDPYTFGGGTKLEIK", "notes": "also called murine J533"}, "B2": {"name": "murine monoclonal antibody E99 (hybridoma ATCC HB-12101) (antibody, mouse IgG3, V domains shown)", "VH": "QVQLKESGPGLVASSQSLSITCTVSGFSLTAYGINWVRQPPGKGLEWLGVIWPDGNTDYNSTLKSRLNIFKDNSKNQVFLKMSSFQTDDTARYFCARDSYGNFKRGWFDFWGQGTTLTVSS", "VL": "NIVMTQSQKFMSTSPGDRVRVTCKASQNVGSDVAWYQAKPGQSPRILIYSTSYRYSGVPDRFTAYGSGTDFTLTITNVQSEDLTEYFCQQYNSYPLTFGAGTKLELK", "notes": "also called murine E99"}, "B3": {"name": "deimmunized J415 antibody composed of heavy chain version 4 (J415DIVH4) and light chain version 5 (J415DIVK5) (antibody, V domains shown)", "VH": "EVKLEESGGGLVQPGGSMKISCVASGFTFSNYWMNWVRQSPEKGLEWVAEIRSQSNNFATHYAESVKGRVIISRDDSKSSVYLQMNSLRAEDTAVYYCTRRWNNFWGQGTTVTVSS", "VL": "NIVMTQFPKSMSASAGERMTLTCKASENVGTYVSWYQQKPTQSPKMLIYGASNRFTGVPDRFSGSGSGTDFILTISSVQAEDLVDYYCGQSYTFPYTFGGGTKLEMK", "notes": "also called DIVH4/DIVK5; deJ415"}, "B4": {"name": "J415 chimeric antibody (murine variable heavy and light chain regions fused to human constant heavy and light chain regions) (antibody, V domains shown)", "VH": "EVKLEESGGGLVQPGGSMKLSCVASGFTFSNYWMNWVRQSPEKGLEWVAEIRSQSNNFATHYAESVKGRVIISRDDSKSSVYLQMNNLRAEDTGIYYCTRRWNNFWGQGTTLTVSS", "VL": "NIVMTQFPKSMSISVGERVTLTCKASENVGTYVSWYQQKPEQSPKMLIYGASNRFTGVPDRFTGSGSATDFILTISSVQTEDLVDYYCGQSYTFPYTFGGGTKLEMK", "notes": "also called the chimeric"}, "B5": {"name": "deimmunized J415 antibody composed of heavy chain version 1 (J415DIVH1) and light chain version 5 (J415DIVK5) (antibody, V domains shown)", "VH": "EVKLEESGGGLVQPGGSMKISCKASGFTFSNYWMNWVRQTPEKGLEWVALIRSQSNNFATHYAESVKGRVIISRDDSKSSVYLQMNSLRAEDTAVYYCTRRWNNFWGQGTTVTVSS", "VL": "NIVMTQFPKSMSASAGERMTLTCKASENVGTYVSWYQQKPTQSPKMLIYGASNRFTGVPDRFSGSGSGTDFILTISSVQAEDLVDYYCGQSYTFPYTFGGGTKLEMK", "notes": "also called DIVK5 combined with heavy chain version 1; J415DIVH1 + J415DIVK5"}, "B6": {"name": "murine monoclonal antibody J415 (hybridoma ATCC HB-12109) (antibody, mouse IgG1, V domains shown)", "VH": "EVKLEESGGGLVQPGGSMKLSCVASGFTFSNYWMNWVRQSPEKGLEWVAEIRSQSNNFATHYAESVKGRVIISRDDSKSSVYLQMNNLRAEDTGIYYCTRRWNNFWGQGTTLTVSS", "VL": "NIVMTQFPKSMSISVGERVTLTCKASENVGTYVSWYQQKPEQSPKMLIYGASNRFTGVPDRFTGSGSATDFILTISSVQTEDLVDYYCGQSYTFPYTFGGGTKLEMK", "notes": "also called murine J415"}, "B7": {"name": "deimmunized J415 antibody composed of heavy chain version 2 (J415DIVH2) and light chain version 5 (J415DIVK5) (antibody, V domains shown)", "VH": "EVKLEESGGGLVQPGGSMKISCVASGFTFSNYWMNWVRQTPEKGLEWVALIRSQSNNFATHYAESVKGRVIISRDDSKSSVYLQMNSLRAEDTAVYYCTRRWNNFWGQGTTVTVSS", "VL": "NIVMTQFPKSMSASAGERMTLTCKASENVGTYVSWYQQKPTQSPKMLIYGASNRFTGVPDRFSGSGSGTDFILTISSVQAEDLVDYYCGQSYTFPYTFGGGTKLEMK", "notes": "also called DIVK5 combined with heavy chain version 2; J415DIVH2 + J415DIVK5"}}, "key": {"[1]": {"molecular_target": "T1, prostate specific membrane antigen (PSMA), human (human, UniProt Q04609 1-750)", "T1 construct": "whole, on cells; The target was native PSMA on LNCaP cells, in LNCaP membrane preparations (ELISA) or in frozen tissue sections (immunohistochemistry); also called human PSMA", "T1 sequence (Q04609 whole entry)": "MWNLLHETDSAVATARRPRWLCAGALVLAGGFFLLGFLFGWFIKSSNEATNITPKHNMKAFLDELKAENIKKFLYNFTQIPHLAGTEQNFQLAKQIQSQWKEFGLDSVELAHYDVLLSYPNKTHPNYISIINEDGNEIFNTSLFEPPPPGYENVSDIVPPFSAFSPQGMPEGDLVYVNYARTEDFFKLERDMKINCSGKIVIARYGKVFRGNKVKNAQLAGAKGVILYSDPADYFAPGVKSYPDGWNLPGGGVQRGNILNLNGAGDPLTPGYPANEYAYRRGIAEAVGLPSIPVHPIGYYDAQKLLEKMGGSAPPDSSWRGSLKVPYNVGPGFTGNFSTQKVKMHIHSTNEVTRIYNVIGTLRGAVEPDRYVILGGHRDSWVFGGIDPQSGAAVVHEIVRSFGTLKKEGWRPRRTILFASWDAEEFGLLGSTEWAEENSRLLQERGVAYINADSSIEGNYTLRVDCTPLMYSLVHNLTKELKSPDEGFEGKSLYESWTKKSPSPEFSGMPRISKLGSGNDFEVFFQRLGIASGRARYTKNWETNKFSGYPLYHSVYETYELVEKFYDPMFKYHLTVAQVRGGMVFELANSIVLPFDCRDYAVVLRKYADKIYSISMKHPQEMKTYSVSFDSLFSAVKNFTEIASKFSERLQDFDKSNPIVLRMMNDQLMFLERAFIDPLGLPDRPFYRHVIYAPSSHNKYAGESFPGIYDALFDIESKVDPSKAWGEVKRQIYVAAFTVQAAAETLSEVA", "assay": "stated, method not described"}, "[2]": {"molecular_target": "T1, prostate specific membrane antigen …", "assay": "ELISA on LNCaP membrane preparation"}, "[3]": {"molecular_target": "T1, prostate specific membrane antigen …", "assay": "ELISA on LNCaP membrane preparation, purified antibody"}}, "data": [{"binder": "B1", "values": [{"measurement": "binding result", "setting": "[1]", "result": "binds"}]}, {"binder": "B2", "values": [{"measurement": "binding result", "setting": "[1]", "result": "binds"}]}, {"binder": "B3", "values": [{"measurement": "binding result", "setting": "[2]", "result": "binds"}]}, {"binder": "B4", "values": [{"measurement": "binding result", "setting": "[2]", "result": "binds"}]}, {"binder": "B5", "values": [{"measurement": "fold less binding than the chimeric J415 antibody", "setting": "[3]", "result": 2, "unit": "fold"}]}, {"binder": "B6", "values": [{"measurement": "binding result", "setting": "[1]", "result": "binds"}]}, {"binder": "B7", "values": [{"measurement": "fold less binding than the chimeric J415 antibody", "setting": "[3]", "result": 2, "unit": "fold"}]}]}
